Data as given in US20220332804A1 (CSL INNOVATION, published 2022).
Changes are numbered by the printed parent chain.

What was measured:
Experiment in all cases: SPR, antibody captured, C2 as analyte;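 also: biacore SPR at 37 °C, anti-C2 mAbs captured via goat anti-human IgG on CM5 chips, double-referenced sensorgrams fit to a 1:1 kinetic or steady-state model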
human C2 A326S = target: T1, human C2 A326S (human, UniProt P06681 21-752)
T1 sequence: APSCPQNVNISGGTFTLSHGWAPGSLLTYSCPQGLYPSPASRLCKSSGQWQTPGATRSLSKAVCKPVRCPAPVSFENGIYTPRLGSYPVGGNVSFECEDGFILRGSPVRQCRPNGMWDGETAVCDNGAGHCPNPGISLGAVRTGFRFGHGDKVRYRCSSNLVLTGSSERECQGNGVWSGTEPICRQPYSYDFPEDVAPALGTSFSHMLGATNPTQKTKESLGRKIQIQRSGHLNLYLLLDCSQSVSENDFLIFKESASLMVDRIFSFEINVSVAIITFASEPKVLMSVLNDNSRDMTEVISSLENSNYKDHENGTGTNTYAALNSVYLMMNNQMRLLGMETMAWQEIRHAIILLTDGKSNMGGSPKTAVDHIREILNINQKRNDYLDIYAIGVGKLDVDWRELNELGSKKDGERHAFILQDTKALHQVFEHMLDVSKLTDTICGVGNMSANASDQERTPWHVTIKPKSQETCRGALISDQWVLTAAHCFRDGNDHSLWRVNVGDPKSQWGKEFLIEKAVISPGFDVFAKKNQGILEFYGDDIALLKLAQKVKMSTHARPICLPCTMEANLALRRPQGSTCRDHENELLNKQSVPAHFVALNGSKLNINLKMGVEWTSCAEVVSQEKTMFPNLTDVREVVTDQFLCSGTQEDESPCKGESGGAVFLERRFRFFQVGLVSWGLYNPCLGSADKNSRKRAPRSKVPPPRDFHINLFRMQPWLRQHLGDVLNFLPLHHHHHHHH

human C2 E450A = target: T2, human C2 E450A (human, UniProt P06681 21-752)
T2 sequence: T1 sequence with S306A, E430A

human C2 E532A = target: T3, human C2 E532A (human, UniProt P06681 21-752)
T3 sequence: T1 sequence with S306A, E512A

human C2 P718A = target: T4, human C2 P718A (human, UniProt P06681 21-752)
T4 sequence: T1 sequence with S306A, P698A

B1: RF16-226 (antibody, human IgG4 S228P, lambda)
heavy: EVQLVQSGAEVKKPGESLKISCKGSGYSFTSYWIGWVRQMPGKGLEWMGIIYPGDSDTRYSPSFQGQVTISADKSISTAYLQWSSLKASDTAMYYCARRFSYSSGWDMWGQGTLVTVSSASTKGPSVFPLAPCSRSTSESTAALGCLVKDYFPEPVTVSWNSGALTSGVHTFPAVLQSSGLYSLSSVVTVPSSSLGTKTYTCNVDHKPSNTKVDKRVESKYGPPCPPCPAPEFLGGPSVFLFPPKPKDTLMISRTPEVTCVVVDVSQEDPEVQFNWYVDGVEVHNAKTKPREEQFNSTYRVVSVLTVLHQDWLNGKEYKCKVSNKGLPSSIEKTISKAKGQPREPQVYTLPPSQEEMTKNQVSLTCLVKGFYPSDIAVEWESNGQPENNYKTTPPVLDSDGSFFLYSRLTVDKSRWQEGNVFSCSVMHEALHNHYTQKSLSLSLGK
light: SYELTQPPSVSVSPGQTARITCSGDALTSKYVAWYQQKSGLAPLLVIYEDTRRPSGIPAKFSGSSSGSVATLTISGAHGDDEADYYCYSTDASGHQRVFGGGTKLTVLSQPKAAPSVTLFPPSSEELQANKATLVCLISDFYPGAVTVAWKADGSPVKAGVETTKPSKQSNNKYAASSYLSLTPEQWKSHRSYSCQVTHEGSTVEKTVAPTECS
notes: pH-dependent anti-C2 antibody from a phage display library; also called WT
With B1 the Kd (human C2 A326S) was 13.2 nM, the Kd (human C2 E450A) was 4.2 nM and the Kd (human C2 E532A) was 17.2 nM. For the same binder, the Kd (human C2 P718A) was 15.2 nM.
